Experimental data taken from publication PMC4138198.

Assays:
TurA (P. putida KT2440) = assay: SPR; Biacore 2000, biotinylated Pmr, TurA or TurB (about 500 RU) immobilised on streptavidin chip SA, Pmr as analyte at lower concentrations; 4°C, 20 mM Tris-HCl pH 7.5, 0.5 M NaCl, 5% glycerol, 475 mM imidazole, 30 ul/min; Req divided by the immobilised amount
[1] = target: Pmr (plasmid pCAR1 (isolated originally from P. resinovorans CA10)); assay: as above
[2] = target: Pmr (plasmid pCAR1 (isolated originally from P. resinovorans CA10)); assay: SEC; 1 ml of purified protein at 140 uM on HiLoad 16/60 Superdex 200 prep grade in buffer B (20 mM Tris-HCl pH 7.5, 4°C, 0.5 M NaCl, 10% glycerol, 0.5 M imidazole); fractions checked by Tricine-SDS-PAGE and anti-His Western blot
[3] = target: Pmr-R8A (plasmid pCAR1 (isolated originally from P. resinovorans CA10)); assay: as above

Substance | binding amount of APmr per ligand homodimer, relative to LTurB-APmr (TurA (P. putida KT2440)) | binding amount of APmr per ligand homodimer, relative to LTurB-APmr [1] | stoichiometry N [2] | stoichiometry N [3]
Pmr (natural protein) | 2 fold | 2 fold | 35 -mer | –
Pmr-R8A (natural protein) | – | – | – | 6 -mer
